Experimental data published in paper PMC5228287 (Food chemistry, 2016).

T1: pancreatic lipase (Sus scrofa, UniProt P00591)
T1 sequence (P00591 1-450): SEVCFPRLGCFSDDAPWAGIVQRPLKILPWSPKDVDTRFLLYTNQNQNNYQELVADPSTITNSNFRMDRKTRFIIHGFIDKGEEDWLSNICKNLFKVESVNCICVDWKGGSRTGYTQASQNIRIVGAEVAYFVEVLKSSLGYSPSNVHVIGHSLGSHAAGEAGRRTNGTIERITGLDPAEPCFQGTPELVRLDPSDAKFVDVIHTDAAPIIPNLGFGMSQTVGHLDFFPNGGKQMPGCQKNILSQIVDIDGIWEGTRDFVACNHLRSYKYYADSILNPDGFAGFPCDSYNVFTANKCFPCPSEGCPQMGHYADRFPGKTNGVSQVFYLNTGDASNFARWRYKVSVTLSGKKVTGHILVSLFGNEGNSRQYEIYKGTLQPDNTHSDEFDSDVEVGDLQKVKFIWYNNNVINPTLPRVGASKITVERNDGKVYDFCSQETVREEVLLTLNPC


How the values were obtained:
pancreatic lipase = molecular target: T1, pancreatic lipase; assay: 4-NPB hydrolysis assay; type: biochemical
[1] = substrate: CCCC(=O)Oc1ccc([N+](=O)[O-])cc1; assay: Michaelis-Menten kinetics; type: biochemical, Sus scrofa

| Molecule | IC50 (pancreatic lipase) [µM] | Km [1] [µM] | Vmax [1] [µmol/min/mg] |
| --- | --- | --- | --- |
| O=c1c(O)cc([C@H]2Oc3cc(O)cc(O)c3C[C@H]2O)cc2c([C@H]3Oc4cc(O)cc(O)c4C[C@H]3O)cc(O)c(O)c12 [TF, Theaflavin] | > 10 | – | – |
| pancreatic lipase (Sus scrofa) (protein) SEVCFPRLGCFSDDAPWAGIVQRPLKILPWSPKDVDTRFLLYTNQNQNNYQELVADPSTITNSNFRMDRKTRFIIHGFIDKGEEDWLSNICKNLFKVESVNCICVDWKGGSRTGYTQASQNIRIVGAEVAYFVEVLKSSLGYSPSNVHVIGHSLGSHAAGEAGRRTNGTIERITGLDPAEPCFQGTPELVRLDPSDAKFVDVIHTDAAPIIPNLGFGMSQTVGHLDFFPNGGKQMPGCQKNILSQIVDIDGIWEGTRDFVACNHLRSYKYYADSILNPDGFAGFPCDSYNVFTANKCFPCPSEGCPQMGHYADRFPGKTNGVSQVFYLNTGDASNFARWRYKVSVTLSGKKVTGHILVSLFGNEGNSRQYEIYKGTLQPDNTHSDEFDSDVEVGDLQKVKFIWYNNNVINPTLPRVGASKITVERNDGKVYDFCSQETVREEVLLTLNPC | – | 149.3 ± 24.2 | 1.51e-05 ± 1e-06 |
